Blank lines part the entries; values can stand above or below the binder they belong to.
How the values were obtained:
RPA = biological target: T1, RPA (UniProt Q92372;Q92373;Q92374 1-609;1-279;1-104); assay: EMSA; 1 mM EDTA; 50 ng RPA; 50 mM Tris-HCl pH 7.5, 1 mM EDTA, 1 mM DTT, 0.1 mg/ml BSA, 50 mM NaCl, 5% glycerol, 15 fmol DNA in 10 µl, room temperature 30 min; 5% PAGE in 1x TBE; settings: protein: recombinant; tags: 6xHis-GST on Rpa1 in plasmid pDB2129; copies: 1;1;1; label: 5' 32P on oligo461; 18 bp duplex with 5' overhang 31 nt on oligo461
T1 sequence 1: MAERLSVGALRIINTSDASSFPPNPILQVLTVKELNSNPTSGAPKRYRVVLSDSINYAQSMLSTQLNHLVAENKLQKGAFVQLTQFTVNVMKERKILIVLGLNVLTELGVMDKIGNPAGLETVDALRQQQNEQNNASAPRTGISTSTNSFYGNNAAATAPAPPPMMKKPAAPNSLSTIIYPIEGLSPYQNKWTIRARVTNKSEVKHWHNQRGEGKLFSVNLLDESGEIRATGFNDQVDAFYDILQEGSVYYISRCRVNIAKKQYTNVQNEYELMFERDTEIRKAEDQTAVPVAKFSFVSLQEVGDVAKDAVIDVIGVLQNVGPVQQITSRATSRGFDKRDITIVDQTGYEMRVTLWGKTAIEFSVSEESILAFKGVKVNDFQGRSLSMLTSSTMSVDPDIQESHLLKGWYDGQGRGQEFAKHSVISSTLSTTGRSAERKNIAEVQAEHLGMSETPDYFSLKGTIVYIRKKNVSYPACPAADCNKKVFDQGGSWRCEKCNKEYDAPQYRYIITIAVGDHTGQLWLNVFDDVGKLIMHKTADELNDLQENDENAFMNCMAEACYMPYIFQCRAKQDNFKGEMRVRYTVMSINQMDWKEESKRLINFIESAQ
T1 sequence 2: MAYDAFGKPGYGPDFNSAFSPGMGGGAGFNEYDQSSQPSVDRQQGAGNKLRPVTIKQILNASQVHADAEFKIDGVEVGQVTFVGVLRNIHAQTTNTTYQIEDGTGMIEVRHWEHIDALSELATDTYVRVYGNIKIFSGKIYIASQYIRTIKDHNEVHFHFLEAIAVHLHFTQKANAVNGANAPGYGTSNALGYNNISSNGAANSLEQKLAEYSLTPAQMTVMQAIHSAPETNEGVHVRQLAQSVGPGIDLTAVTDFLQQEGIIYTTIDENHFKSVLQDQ
T1 sequence 3: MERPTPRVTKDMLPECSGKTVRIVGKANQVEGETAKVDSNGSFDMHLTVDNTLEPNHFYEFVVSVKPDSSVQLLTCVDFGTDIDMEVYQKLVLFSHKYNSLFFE

[1] = biological target: T2, Dna2 co-overexpressed with Cdc24-YFH and purified from fission yeast (S. pombe, UniProt Q9URU2 1-1397); assay: cross-linking; CXMS: Dna2-Cdc24-Pxd1(227–351) complex formed on anti-FLAG beads and eluted with 3× FLAG peptide; about 12 µg cross-linked by BS3 or DSS (0.5 mM, 1 h, room temperature), trypsin, LC-MS/MS, pLink; settings: both partners purified
T2 construct: Dna2, S. pombe; The Dna2 chain of m29, written alone for the cross-links with Cdc24; source: fission yeast pxd1Δ cells, co-overexpressed with Cdc24-YFH, purified (anti-FLAG beads)
T2 sequence (looked up): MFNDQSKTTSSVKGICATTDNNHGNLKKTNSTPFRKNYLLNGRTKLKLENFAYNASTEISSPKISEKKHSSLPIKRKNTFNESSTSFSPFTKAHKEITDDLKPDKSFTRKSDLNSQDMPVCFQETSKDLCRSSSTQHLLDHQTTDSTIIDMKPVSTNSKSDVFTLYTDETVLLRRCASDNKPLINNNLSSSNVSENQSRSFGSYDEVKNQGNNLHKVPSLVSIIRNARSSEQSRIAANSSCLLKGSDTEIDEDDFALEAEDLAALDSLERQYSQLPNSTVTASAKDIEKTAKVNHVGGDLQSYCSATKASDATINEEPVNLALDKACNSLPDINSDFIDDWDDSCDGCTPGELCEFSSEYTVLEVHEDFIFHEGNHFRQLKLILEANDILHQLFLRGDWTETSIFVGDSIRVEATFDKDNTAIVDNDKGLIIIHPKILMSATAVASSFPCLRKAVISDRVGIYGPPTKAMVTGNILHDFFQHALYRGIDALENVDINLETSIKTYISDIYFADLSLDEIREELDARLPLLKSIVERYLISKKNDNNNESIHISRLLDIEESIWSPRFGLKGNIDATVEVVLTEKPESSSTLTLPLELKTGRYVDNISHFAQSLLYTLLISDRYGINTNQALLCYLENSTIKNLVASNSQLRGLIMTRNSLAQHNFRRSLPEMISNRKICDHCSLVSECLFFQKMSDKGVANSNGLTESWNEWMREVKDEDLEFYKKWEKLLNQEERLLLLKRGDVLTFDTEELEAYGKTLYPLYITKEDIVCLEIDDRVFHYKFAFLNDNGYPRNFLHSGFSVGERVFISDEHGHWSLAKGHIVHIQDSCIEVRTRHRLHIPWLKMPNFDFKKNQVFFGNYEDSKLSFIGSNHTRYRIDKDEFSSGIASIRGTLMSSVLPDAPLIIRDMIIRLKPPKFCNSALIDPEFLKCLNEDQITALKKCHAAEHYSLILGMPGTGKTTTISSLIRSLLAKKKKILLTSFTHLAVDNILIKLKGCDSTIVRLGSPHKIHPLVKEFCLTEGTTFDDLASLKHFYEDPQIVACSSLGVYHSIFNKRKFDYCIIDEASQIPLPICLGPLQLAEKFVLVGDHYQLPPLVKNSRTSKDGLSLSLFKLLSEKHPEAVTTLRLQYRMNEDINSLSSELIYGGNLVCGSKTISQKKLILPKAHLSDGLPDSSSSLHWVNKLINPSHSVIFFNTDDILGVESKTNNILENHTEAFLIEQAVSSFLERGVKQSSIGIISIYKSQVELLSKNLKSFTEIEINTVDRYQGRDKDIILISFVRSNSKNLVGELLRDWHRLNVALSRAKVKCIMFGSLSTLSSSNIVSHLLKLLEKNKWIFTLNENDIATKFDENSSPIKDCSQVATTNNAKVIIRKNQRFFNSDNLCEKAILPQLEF

B1: 5' overhang DNA (oligo461/oligo463) (dsDNA)
DNA 1: CACGCTACCGAATTCTGACTTGCTAGGACATCTTTGCCCACGTTGACCC
DNA 2: GGGTCAACGTGGGCAAAG
binding result (RPA): binds

binding result [1]: binds
B2: Cdc24-YFH co-overexpressed with Dna2 and purified from fission yeast (natural protein, S. pombe, UniProt O75004 1-501, looked up)
chain: MDFPGLIKKIKEDLENRLVEKSKQPAFTDYWLINKTISLLKEYPSGFSYPILINEIELACSERNKLDNVFSSLEWLTKSDAVIYLEDQFHFHCYDYYYTPIPSLKLKDSEENTCEMILHSSFYLLFHEPFNILKGSTLRFSQSRIHQKWYLRKQIRFLPTTSFVPVLQYAASKSFVKSMVESTEHEFFQIRDITISKSDQGVKRITVELGRIISLDKKGAFLIDNNTNFIHFSGTYHDFPKLLDKQQYLLIPFWSTVWEGSTNWQDGMIGILVILSENDFEEKKCDSWQVGRLAAVNSNFLVLDNNGQRVKILYSNSQKHYFKDTYIGDLLCISPINHSSDNLSDYSCVSDTTTEILSNLENPLSSNFLRNDLCKFSNLFSGVSGHLKIQPLTLVITGFVANLTRQSDLNTSLVLPEVNPLTAKMEVIDCLRNSFWAALRPNCVSYFASMISGFKELFQKEMEFPIYLDLKSYKLGFHWCDIYVDSEHNCHIQKINSLPCE
notes: Cdc24, S. pombe; The Cdc24 chain of m29, written alone for the cross-links; source: fission yeast pxd1Δ cells, co-overexpressed with Dna2, purified (anti-FLAG beads)
